In the RNAGym collection of RNA variant scans (doi:10.7554/elife.80360):

B1: HDV Ribozyme (parent)
chain: GGCCGGCAUGGUCCCAGCCUCCUCGCUGGCGCCGGCUGGGCAACAUUCCGAGGGGACCGUCCCCUCGGUAAUGGCGAAUGGGACCCA

Variants of: B1
Experiment: self-cleavage, relative activity (ratio to wild type); higher = more cleavage; co-transcriptional
In the case of A56U C57A, the self-cleavage is reported as 0.966. For U23A G40A, the self-cleavage was 1.14. For C3U C41U, the self-cleavage was 0.726. Work on A43U G50U yielded a self-cleavage of 0.458. C32A U60C gave a self-cleavage of 0.213. For C3G A78G, the self-cleavage was 0.151. For C14U C15U, the self-cleavage was 0.665. With G5A C30A the self-cleavage was 0.109. In the case of U47G G81C, the self-cleavage is reported as 0.128. Variant C66A C75A has a self-cleavage of 0.248. C3G C84A showed a self-cleavage of 0.564. For C48U A87U, the self-cleavage was 0.942. Work on U47C C48U yielded a self-cleavage of 0.597. C22G U65G gave a self-cleavage of 0.155. U20C C63A gave a self-cleavage of 0.0898. C18U G80A showed a self-cleavage of 0.196. G2U U12C gave a self-cleavage of 0.0241. For G25C C36G, the self-cleavage was 0.0519. Work on G38A C86G yielded a self-cleavage of 0.107. Work on A16G G17C yielded a self-cleavage of 0.214. With C19A U47A the self-cleavage was 0.0554. Variant G17C A45U has a self-cleavage of 0.107. C19G C63U showed a self-cleavage of 0.0978. U37G G54A gave a self-cleavage of 0.0755. G6C G68A showed a self-cleavage of 0.201. In the case of G5C G25U, the self-cleavage is reported as 0.0475. In the case of G35C C57G, the self-cleavage is reported as 0.201. In the case of C32U A83C, the self-cleavage is reported as 0.232. For G40C A83C, the self-cleavage was 0.0755. With C36U C62A the self-cleavage was 0.53. G25A G52A showed a self-cleavage of 0.0863. Work on G5C A45C yielded a self-cleavage of 0.0639. A16C A77G gave a self-cleavage of 0.831. With C4A C85A the self-cleavage was 0.346. Work on C3A G40C yielded a self-cleavage of 0.0923. In the case of C62G C64A, the self-cleavage is reported as 0.608. With U65A C86G the self-cleavage was 1.12. In the case of G5U A78C, the self-cleavage is reported as 0.185. In the case of C3A A8C, the self-cleavage is reported as 0.299. C57G U60A showed a self-cleavage of 0.987. In the case of C3A A87U, the self-cleavage is reported as 0.632. With A8G U60A the self-cleavage was 0.95. For G39A G73U, the self-cleavage was 0.0845. G10U A87C showed a self-cleavage of 0.801. For U60C C63A, the self-cleavage was 1.04. U72C A77U showed a self-cleavage of 0.285. With G6U C41A the self-cleavage was 0.269. G73A C84G showed a self-cleavage of 0.345. Work on C14G C32A yielded a self-cleavage of 0.0554. With A51U C63U the self-cleavage was 0.88. G28U G39U gave a self-cleavage of 0.119. In the case of G39A A45U, the self-cleavage is reported as 0.389. For A16U G50A, the self-cleavage was 0.933. Variant U72A A77U has a self-cleavage of 0.322. U27G G34C showed a self-cleavage of 0.0692. In the case of A70G G81C, the self-cleavage is reported as 0.277. C61G C84U showed a self-cleavage of 0.544. C30U G50U showed a self-cleavage of 0.645. Variant C24G C64A has a self-cleavage of 0.117. C61A C75A gave a self-cleavage of 0.136. Variant A8G C18U has a self-cleavage of 0.297. In the case of G34A C57U, the self-cleavage is reported as 0.332. With C19G G54C the self-cleavage was 0.0489. G53U C66A gave a self-cleavage of 0.937. With C7A C85G the self-cleavage was 0.688. Variant C30U A56U has a self-cleavage of 0.782. With G29U C86U the self-cleavage was 0.0959. In the case of C13U G17C, the self-cleavage is reported as 0.217. A8G U47C showed a self-cleavage of 1.07. G38A A56C gave a self-cleavage of 0.13. Variant C3A U20C has a self-cleavage of 0.108. In the case of U23A C75G, the self-cleavage is reported as 0.116. C57U U69C showed a self-cleavage of 0.831. G5U G74C gave a self-cleavage of 0.0475. G2U C24A showed a self-cleavage of 0.0554. Variant C18A C61U has a self-cleavage of 0.237. For C75U A83G, the self-cleavage was 0.166. For C58G G59U, the self-cleavage was 0.946. In the case of C21U C64G, the self-cleavage is reported as 0.364. Work on U47G C85G yielded a self-cleavage of 1.18. Work on C58G G59C yielded a self-cleavage of 1.03. C49U A51G showed a self-cleavage of 1.01. In the case of C13A C32A, the self-cleavage is reported as 0.0326. C14U A42G showed a self-cleavage of 0.959. C33A C41U showed a self-cleavage of 0.163. For A42G A78G, the self-cleavage was 0. C48U C57A showed a self-cleavage of 0.972. C30A G53A showed a self-cleavage of 0.389. With C22A C41U the self-cleavage was 0.252. U46C U65A showed a self-cleavage of 0.853. In the case of U47A U72A, the self-cleavage is reported as 0.748. For U46G A56G, the self-cleavage was 0.499. For A16U G38U, the self-cleavage was 0.253. Variant G34A G39C has a self-cleavage of 0.0707. Work on G5C A56U yielded a self-cleavage of 0.314. G6A G52C gave a self-cleavage of 0.831. G28A G53U showed a self-cleavage of 0.0615. Variant G29C G59U has a self-cleavage of 0.163. For C44U U60C, the self-cleavage was 0.872. Work on G29C U37C yielded a self-cleavage of 0.0898. Work on U23G C63U yielded a self-cleavage of 0.469. In the case of U37A A42C, the self-cleavage is reported as 0.246. G53A C86U showed a self-cleavage of 0.881. With G28U A77G the self-cleavage was 0.111. With C66G G82U the self-cleavage was 0.485. In the case of G52C U60G, the self-cleavage is reported as 0.944. C19A G81A showed a self-cleavage of 0.0449. Variant G17U U47C has a self-cleavage of 0.298. In the case of G6C A42C, the self-cleavage is reported as 0.138. A8G G54U showed a self-cleavage of 0.906. Work on C14U U79C yielded a self-cleavage of 0.259. Variant C21G G68U has a self-cleavage of 0. U69A A83U showed a self-cleavage of 0.427. Work on A16C U23G yielded a self-cleavage of 0.688. U9C U60C showed a self-cleavage of 1.11. Variant G53C U65A has a self-cleavage of 0.629. Variant G31U C75G has a self-cleavage of 0.148. In the case of C14A C66U, the self-cleavage is reported as 1.03. For G53U C64A, the self-cleavage was 0.777. For G76C A83U, the self-cleavage was 0.464. Variant C7U C22U has a self-cleavage of 0.394. G5A G76A gave a self-cleavage of 0.229. G28U C58U showed a self-cleavage of 0.185. G25C C48U gave a self-cleavage of 0.26. With G28A G40C the self-cleavage was 0.0702. Work on G34C C84U yielded a self-cleavage of 0.217. In the case of G35C U46A, the self-cleavage is reported as 0.101. G55A C84U gave a self-cleavage of 0.741. For G38U A87G, the self-cleavage was 0.16. With C57U G80C the self-cleavage was 0.145. With G2U C14U the self-cleavage was 0.0468. With G28C G81A the self-cleavage was 0.104. For C14G G67A, the self-cleavage was 0.453. For A42C C62A, the self-cleavage was 0.365. G1C C3U gave a self-cleavage of 0.34. For U47C U72G, the self-cleavage was 0.791. In the case of U37C G52C, the self-cleavage is reported as 0.856. Variant U27G U46G has a self-cleavage of 0.462. Variant G54U A77U has a self-cleavage of 0.688. G25A G38C showed a self-cleavage of 0.0791. In the case of U12A C75G, the self-cleavage is reported as 0.277. Variant C14G U37C has a self-cleavage of 0.646. With C66U C84A the self-cleavage was 0.909. With G55C C61A the self-cleavage was 1.06. In the case of G17A C41A, the self-cleavage is reported as 0.47. For G11C C49G, the self-cleavage was 0.0504. Work on C41G G82A yielded a self-cleavage of 0.0811. G31A C32U gave a self-cleavage of 0.315. With C7G G11C the self-cleavage was 0. For U46A G53C, the self-cleavage was 0.877. G6U C86A gave a self-cleavage of 0.574. In the case of C33G G50A, the self-cleavage is reported as 0.148. Variant G17U A77G has a self-cleavage of 0.0536. G5A A87G gave a self-cleavage of 0.252. In the case of C26A C66U, the self-cleavage is reported as 0.857. For C36U A83U, the self-cleavage was 0.408. Work on A51G A87C yielded a self-cleavage of 0.751. With C18G C58G the self-cleavage was 0. In the case of C4A C33U, the self-cleavage is reported as 0.104. With A42U A56G the self-cleavage was 0.306. G35U C41U gave a self-cleavage of 0.63. C21A C41U showed a self-cleavage of 0.181. In the case of C7U C36U, the self-cleavage is reported as 0.399. For A71C G80A, the self-cleavage was 0.266. G6U G17U showed a self-cleavage of 0.0519. C41A G54A showed a self-cleavage of 1.01. C30U A51U showed a self-cleavage of 0.791.
